The results in this text go back to the Human Domainome abundance scans (Beltran et al. 2025).

± gives the uncertainty stated by the source.

Sequences and labels used below:
B1: POU domain, class 3, transcription factor 1, residues 247 to 324; numbered along this chain, Q03052 (parent)
chain: EDAPSSDDLEQFAKQFKQRRIKLGFTQADVGLALGTLYGNVFSQTTICRFEALQLSFKNMCKLKPLLNKWLEETDSSS

The variants in this series derive from B1. The series can be described thus: abundance fitness (aPCA) (normalised: wild type 0, dead -1); higher = more abundant; growth selection in yeast, the domain comes from the species named. The settings on record: Homo sapiens.
As to EDAPSSDDLEQFAKQFKQRRIKLGFTQADVGLALGTLYGNVFSQTTICRFEALQLSFKNMCKLKPLLNKCLEETDSSS [W70C], the abundance fitness is -0.762 ± 0.2.

EDAPSSDDLEQFAKQFKQRRIKLGFTQADVGLALGTLYGNVFSQTTICRFEALQLSFKNMCKLKPLLNKALEETDSSS [W70A]: the abundance fitness is -0.689 ± 0.1.

As to EDAPSSDDLEQFAKQFKQRRIKLGFTQADVGLALGTLYGNVFSQTTICRFEALQLSFKNMCKLKPLLMKWLEETDSSS [N68M], the abundance fitness was 0.042 ± 0.063.

Take EDAPSSDDLEQFAKQFKQRRIKLGFTQADVGLALGTLYGNVFSQTTICRFEALQLSFKNMCKLKPLLEKWLEETDSSS [N68E]: the abundance fitness amounted to 0.082 ± 0.059.

Turning to EDAPSSDDLEQFAKQFKQRRIKLGFTQADVGLALGTLYGNVFSQTTICRFEALQLSFKNMCKLKPLLSKWLEETDSSS [N68S], the abundance fitness stood at 0.02 ± 0.055.

Turning to EDAPSSDDLEQFAKQFKQRRIKLGFTQADVGLALGTLYGNVFSQTTICRFEALQLSFKNMCKLKPLLWKWLEETDSSS [N68W], the abundance fitness was -0.118 ± 0.053.

In the case of EDAPSSDDLEQFAKQFKQRRIKLGFTQADVGLALGTLYGNVFSQTTICRFEALQLSFKNMCKLKPLLQKWLEETDSSS [N68Q], the abundance fitness was 0.011 ± 0.076.

As to EDAPSSDDLEQFAKQFKQRRIKLGFTQADVGLALGTLYGNVFSQTTICRFEALQLSFKNMCKLKPLLLKWLEETDSSS [N68L], the abundance fitness turned out to be 0.038 ± 0.051.

On to EDAPSSDDLEQFAKQFKQRRIKLGFTQADVGLALGTLYGNVFSQTTICRFEALQLSFKNMCKLKPLLYKWLEETDSSS [N68Y], for which the abundance fitness is -0.162 ± 0.15.

With EDAPSSDDLEQFAKQFKQRRIKLGFTQADVGLALGTLYGNVFSQTTICRFEALQLSFKNMCKLKPLLDKWLEETDSSS [N68D], the abundance fitness is -0.071 ± 0.1.

In the case of EDAPSSDDLEQFAKQFKQRRIKLGFTQADVGLALGTLYGNVFSQTTICRFEALQLSFKNMCKLKPLLGKWLEETDSSS [N68G], the abundance fitness was -0.049 ± 0.046.

With EDAPSSDDLEQFAKQFKQRRIKLGFTQADVGLALGTLYGNVFSQTTICRFEALQLSFKNMCKLKPLLVKWLEETDSSS [N68V], the abundance fitness is -0.008 ± 0.053.

For EDAPSSDDLEQFAKQFKQRRIKLGFTQADVGLALGTLYGNVFSQTTICRFEALQLSFKNMCKLKPLLHKWLEETDSSS [N68H], the abundance fitness is 0.108 ± 0.12.

In the case of EDAPSSDDLEQFAKQFKQRRIKLGFTQADVGLALGTLYGNVFSQTTICRFEALQLSFKNMCKLKPLLIKWLEETDSSS [N68I], the abundance fitness is -0.028 ± 0.1.

As to EDAPSSDDLEQFAKQFKQRRIKLGFTQADVGLALGTLYGNVFSQTTICRFEALQLSFKNMCKLKPLLRKWLEETDSSS [N68R], the abundance fitness was -0.086 ± 0.046.

For EDAPSSDDLEQFAKQFKQRRIKLGFTQADVGLALGTLYGNVFSQTTICRFEALQLSFKNMCKLKPLLFKWLEETDSSS [N68F], the abundance fitness was -0.175 ± 0.1.

On to EDAPSSDDLEQFAKQFKQRRIKLGFTQADVGLALGTLYGNVFSQTTICRFEALQLSFKNMCKLKPLLTKWLEETDSSS [N68T], for which the abundance fitness was found to be 0.145 ± 0.059.

As to EDAPSSDDLEQFAKQFKQRRIKLGFTQADVGLALGTLYGNVFSQTTICRFEALQLSFKNMCKLKPLLKKWLEETDSSS [N68K], the abundance fitness turned out to be 0.007 ± 0.078.

As for EDAPSSDDLEQFAKQFKQRRIKLGFTQADVGLALGTLYGNVFSQTTICRFEALQLSFKNMCKLKPLLPKWLEETDSSS [N68P], the abundance fitness is -0.763 ± 0.17.

On to EDAPSSDDLEQFAKQFKQRRIKLGFTQADVGLALGTLYGNVFSQTTICRFEALQLSFKNMCKLKPLLNAWLEETDSSS [K69A], for which the abundance fitness is -0.161 ± 0.048.

Take EDAPSSDDLEQFAKQFKQRRIKLGFTQADVGLALGTLYGNVFSQTTICRFEALQLSFKNMCKLKPLLNEWLEETDSSS [K69E]: the abundance fitness was -0.342 ± 0.072.

In the case of EDAPSSDDLEQFAKQFKQRRIKLGFTQADVGLALGTLYGNVFSQTTICRFEALQLSFKNMCKLKPLLNHWLEETDSSS [K69H], the abundance fitness was -0.254 ± 0.12.

With EDAPSSDDLEQFAKQFKQRRIKLGFTQADVGLALGTLYGNVFSQTTICRFEALQLSFKNMCKLKPLLNTWLEETDSSS [K69T], the abundance fitness was -0.251 ± 0.074.

On to EDAPSSDDLEQFAKQFKQRRIKLGFTQADVGLALGTLYGNVFSQTTICRFEALQLSFKNMCKLKPLLNGWLEETDSSS [K69G], for which the abundance fitness was -0.119 ± 0.041.

For the variant EDAPSSDDLEQFAKQFKQRRIKLGFTQADVGLALGTLYGNVFSQTTICRFEALQLSFKNMCKLKPLLNCWLEETDSSS [K69C], the abundance fitness was -0.361 ± 0.095.

As to EDAPSSDDLEQFAKQFKQRRIKLGFTQADVGLALGTLYGNVFSQTTICRFEALQLSFKNMCKLKPLLNNWLEETDSSS [K69N], the abundance fitness was -0.249 ± 0.12.

In the case of EDAPSSDDLEQFAKQFKQRRIKLGFTQADVGLALGTLYGNVFSQTTICRFEALQLSFKNMCKLKPLLNDWLEETDSSS [K69D], the abundance fitness was -0.19 ± 0.11.

On to EDAPSSDDLEQFAKQFKQRRIKLGFTQADVGLALGTLYGNVFSQTTICRFEALQLSFKNMCKLKPLLNPWLEETDSSS [K69P], for which the abundance fitness is -0.662 ± 0.11.

On to EDAPSSDDLEQFAKQFKQRRIKLGFTQADVGLALGTLYGNVFSQTTICRFEALQLSFKNMCKLKPLLNVWLEETDSSS [K69V], for which the abundance fitness is -0.559 ± 0.071.

With EDAPSSDDLEQFAKQFKQRRIKLGFTQADVGLALGTLYGNVFSQTTICRFEALQLSFKNMCKLKPLLNQWLEETDSSS [K69Q], the abundance fitness was -0.02 ± 0.057.

Take EDAPSSDDLEQFAKQFKQRRIKLGFTQADVGLALGTLYGNVFSQTTICRFEALQLSFKNMCKLKPLLNRWLEETDSSS [K69R]: the abundance fitness was -0.058 ± 0.041.

As to EDAPSSDDLEQFAKQFKQRRIKLGFTQADVGLALGTLYGNVFSQTTICRFEALQLSFKNMCKLKPLLNWWLEETDSSS [K69W], the abundance fitness was -0.671 ± 0.12.

In the case of EDAPSSDDLEQFAKQFKQRRIKLGFTQADVGLALGTLYGNVFSQTTICRFEALQLSFKNMCKLKPLLNMWLEETDSSS [K69M], the abundance fitness is -0.144 ± 0.066.

Turning to EDAPSSDDLEQFAKQFKQRRIKLGFTQADVGLALGTLYGNVFSQTTICRFEALQLSFKNMCKLKPLLNYWLEETDSSS [K69Y], the abundance fitness was -0.159 ± 0.14.

For the variant EDAPSSDDLEQFAKQFKQRRIKLGFTQADVGLALGTLYGNVFSQTTICRFEALQLSFKNMCKLKPLLNIWLEETDSSS [K69I], the abundance fitness was 0.102 ± 0.15.
